According to the supplement of paper PMC12042874:
± gives the uncertainty stated by the source.

test: amyloid nucleation score (Sup35N fusion, yeast selection) (log enrichment); library NNK3; higher = more nucleation; inactive = no reads after selection
How it was run: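 Nucleation score: DiMSum log enrichment of output over input reads, centred on the mode score of non-aggregating sequences. Only sequences with at least 100 input reads were kept. Reads came from Illumina sequencing of plasmid inserts before and after 7 days of growth at 30°C without adenine and uracil, in psi-negative yeast expressing Sup35N fused to peptides of 20 random codons after 24 hours of induction with 100 μM copper sulfate.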

Row | Substance | amyloid nucleation score
1 | CNDGSHCLGYY | inactive
2 | LIRRSWSYCVLVSCTDGSHS | inactive
3 | NKHDHLFRKFFLCISLGLAG | inactive
4 | RKACYLLVI | inactive
5 | NNRVLQRRPHRFHGANVTWS | -0.677 ± 1.4
6 | CLPVARGQMR | inactive
7 | AGHSEA | inactive
8 | GFYLVVKTINGFPNNLKWMA | 0.296 ± 0.21
9 | NGDGLVLYIRLLRLRRHVDT | inactive
10 | CIRVKHFCISHEDKR | inactive
11 | NGSHDRGVPAELSAFKG | inactive
12 | VTQATWLGRIYLLLAPA | inactive
13 | CVLSVEYGHNQEDAITMRCE | inactive
14 | RLGRSLRLIVMITG | inactive
15 | RVHFVYIRWFYVRRDGWFSG | inactive
16 | SFTNFFNGSVGICFRCTLMC | 2.28 ± 0.052
17 | SNIDCLFNNVLCWIVFEWC | 1.07 ± 0.11
18 | QRAMYCKSLMSF | inactive
19 | TKLPNYFWGLKGYHLLALLR | inactive
20 | RSFSLGRLSYYRGVTNILLA | inactive
21 | FGVVWGSKLFCRFGSVTIYP | inactive
22 | GTLLMMVFGTVHS | inactive
23 | MRCGRIDGDFGFAPRLRGTM | 0.902 ± 0.14

Row | Substance | amyloid nucleation score
24 | KVRSVDCRNTSNKDHW | inactive
25 | YAFLLYY | inactive
26 | FCMALRKRNFGRFMSKSKEY | inactive
27 | CDMSCMTKSCPPSYPN | -0.395 ± 0.8
28 | TGKLNNFFNTFRYFYLLADY | inactive
29 | ALRARERWLRLPALAWKVMY | inactive
30 | EVLNCSR | inactive
31 | YRMTGKLYAVIECSDTVLSG | inactive
32 | LYRCDDGCSIRTVRDYWWVS | inactive
33 | YPRKFINLNRHWVVVNVFRM | inactive
34 | CVSPDCMLMGAHDYGVERWL | inactive
35 | HLSTRLARFPLL | inactive
36 | SLMPMNYYGVTINVRWSLIQ | 0.554 ± 0.45
37 | RWKMTCFSSYNG | inactive
38 | NINYTYLESVLIMGYMFREL | 2.21 ± 0.095
39 | MEVKNSRLDSVAKYQSISFL | inactive
40 | FVTRHLNFCM | inactive
41 | SRFFGGRYSVLS | inactive
42 | FTRWIWFIVITSASCFKSFH | inactive
43 | CCSGLAMAFRFYASYSGAIY | inactive
44 | SQLAYVGTVKTNFDKISRCG | inactive
45 | ILQVFKIMFKRRGLSFHLGI | inactive
46 | NFEIFSRVQWDLC | inactive

Row | Substance | amyloid nucleation score
47 | RLYYRLQTKQAVWCNHPAPT | inactive
48 | VDNSYQFSLKTDSNYNIERQ | inactive
49 | VSVFMKLVRFET | 1.17 ± 0.091
50 | FSCDIMRPTKLGYSFDGLLL | inactive
51 | RAVYSGVSMD | inactive
52 | THVSSGYRYEEILWWHSRGW | inactive
53 | CCLFADCDLRYFSNRTFFNC | inactive
54 | TYISF | inactive
55 | RRMPLWEVGFSQASLTRQ | inactive
56 | SLVYACSSEL | inactive
57 | LRLVKYNAGIHYGSVGPQFL | inactive
58 | AVNYMYSQSMKIVRDCFVIV | inactive
59 | CLCSMHLRWRSSNWRGYEHF | 0.474 ± 0.31
60 | RDEYYRDRLGIVNLSRCSKS | inactive
61 | LGVLMLQSTRFAAWVSSLGR | inactive
62 | NWMGTGGYDMDDFFE | inactive
63 | SDCSIHKSGYVTDTACDVFD | inactive
64 | WVRCVRQGVYLRYVLLLCEI | inactive
65 | LYDTDSCLSSYCSPFRHPRY | inactive
66 | SSWFNGSLTVRQLIQRGRLF | inactive
67 | HSRLFLGNVTCYWVHEVSLI | inactive
68 | VFNKCVQFYFILGRNNEIWI | 2.56 ± 0.077
69 | HSDMLDYVSMVFFMVIRAGM | inactive

Row | Substance | amyloid nucleation score
70 | VYKWRAYIEHSNFWAIKPVC | inactive
71 | LSDCRSWVPCGRHCSF | inactive
72 | ILTHIVWLFVRLSCMNWNWL | inactive
73 | AWPIIRFYIQRYLWIVRGRG | inactive
74 | CMDKFWCVVYA | -0.416 ± 1.5
75 | LCLLYIGTSTIYGHECPDKT | inactive
76 | MAMDCLISTALVLLVKYASV | inactive
77 | RNLLRSTLKGYFWYSCNVDV | inactive
78 | VLCSVFIFFLRGFDS | 2.3 ± 0.066
79 | SFNSVDTRLWTVPRWERMVN | inactive
80 | GLFLGYSLIASVIGRLVDNL | inactive
81 | MHANLLGVQSVLLDRVEVMW | inactive
82 | ENWTDGM | inactive
83 | ISYVYFLGPCV | 2.13 ± 0.08
84 | STTVTGLYKNFRHYVSGRCG | inactive
85 | GSACFPYFYTYSFRFLVAC | inactive
86 | MYPYAITVTGMFLLVPSCLD | inactive
87 | GSVFTRFVSREVFCWDACCR | inactive
88 | GFGGFGRVDNSLCIKAPCCV | 0.127 ± 0.29
89 | IFFSIVSWKDAGCSEAINCQ | inactive
90 | RLTTNTIVKDSISRFRN | 0.183 ± 0.29
91 | YVQSLNR | inactive
92 | VTQESNHATIAVLM | inactive

Row | Substance | amyloid nucleation score
93 | FCLLIRAVSPCLTSGRIILV | inactive
94 | FGNINLCMCFWKMEIECLTR | inactive
95 | SFYMPTQKLMLFIVVKVKAT | inactive
96 | SSFSVSVVSKGKSVRNSGSL | 0.568 ± 0.33
97 | LVIVFCMVFLTFIF | 0.545 ± 0.13
98 | CDTSCWLLSTPLADWTIAFN | inactive
99 | GSEHYLPSYYRFFLLVFYDV | inactive
100 | EYDSYSKIYWHISLAVFILI | inactive
101 | SNRNRTTNMNHEPLANYSFN | inactive
102 | YVWLGDLMSVRCYYWVTW | inactive
103 | YANWLVLILYG | 1.32 ± 0.11
104 | SMFCMVSFMMW | -0.071 ± 0.22
105 | CVPGYGYRLNYSL | inactive
106 | TYTVYLRRYAYYECTFRQFL | inactive
107 | GMQAGTGSKCCGRTGQI | inactive
108 | NSYGPRKSSGRVAPF | inactive
109 | YPLSPRLLRTTTMHSTQGVG | inactive
110 | MVIAPGEKTNNLSSAHRWSN | inactive
111 | MFLLMNKV | inactive
112 | SFLSYCC | inactive
113 | IWCQRYYAIGRRVPKASYDG | -0.179 ± 0.78
114 | QIVRYASSQCDCRNFLSTVE | inactive
115 | GRPIKWKKRSAVK | inactive

Row | Substance | amyloid nucleation score
116 | VSTGSAGSLWSV | inactive
117 | IDISIL | inactive
118 | CVYGPRFNF | 1.94 ± 0.067
119 | SDITSHLRHSNASNGSWNWL | inactive
120 | TNTSFSNWRCTPDRGIM | inactive
121 | YKYVTNDLSRVILRPVSARY | inactive
122 | PQMQAISSHVCLWG | inactive
123 | HYSAREWLLLCIMVCDVVVW | inactive
124 | FTWARETVPVVQNWFGTREV | inactive
125 | LIASLRIWPRESMPR | inactive
126 | KHYDLGFQYFSR | inactive
127 | NKVLFYVTYLFFIRNFLV | inactive
128 | HNCLVLVCDTCLSVYWNFSS | 2.83 ± 0.052
129 | LQGQHDAHWQSCSRLSECSQ | inactive
130 | GDDSSRHFNEFLYNRFAALW | inactive
131 | GLGYWAKGSHLWVLLRLLNH | inactive
132 | YKNSWLKW | inactive
133 | YSRLEFKRWHVVIDSWRWMD | inactive
134 | GITRVRSSFVSAASHV | inactive
135 | YSMSILFRYHLNGVRYGMTG | inactive
136 | CSGFRVNSSTVIGYLSILLK | inactive
137 | VWCTSVVT | -0.149 ± 0.28
138 | FWSFRPGHITLSIGHTRIAG | inactive

Row | Substance | amyloid nucleation score
139 | TVDMSKPGYIWFSSDRSRYW | inactive
140 | ECRYIPLYREFTRRVSMSGL | inactive
141 | PYFTDAFVNEMDMQCH | inactive
142 | YRVRLCNGSCAQVWCLIRPP | inactive
143 | VDAIASGVYWPPVVVYSWLF | inactive
144 | NVLFLVNY | 2.42 ± 0.067
145 | KEDLTSLVTLEKEALLVSDE | inactive
146 | KVCIHSIEIV | inactive
147 | QRVSFCIEVIGFQ | -0.042 ± 0.98
148 | HRREMSHCKREPWKSINFYW | inactive
149 | MRTMLVFVRGFKFFLPDLLI | inactive
150 | YYPSEQTIGWPKLTFVDVVL | inactive
151 | MMELQVAQLHTEGDRLKSRR | -0.787 ± 2.4
152 | FCVTQWRAQRASHLYFMPGE | inactive
153 | LWRIILWPFVTWSDMMFFQF | -0.076 ± 0.98
154 | YFTYGRQCMVVLDCLVDRRG | inactive
155 | FSCIMVRCYFR | inactive
156 | AILEVLT | 0.671 ± 0.17
157 | SLWPSRNCVDEEVFDFSDKS | inactive
